Measurements reported in US20240262893A1.
Where two headings read alike, the source gives them in different places.

Legend:
[1] = substrate: S protein of a SARS-CoV-2 delta lineage virus on pseudotyped virus (SARS-CoV-2 (delta lineage)); assay: cell-based or functional assay
[2] = target: T1, SARS CoV-2 spike trimer protein from the parental Wuhan-Hu-1 isolate (extracellular domain, furin-cl (SARS-CoV-2 (Wuhan-Hu-1))); settings: remark: other sources report otherwise
[3] = target: T1, SARS CoV-2 spike trimer protein from …; assay: ELISA, spike protein coated, IgG detected with anti-human Fc-HRP; settings: remark: other sources report otherwise
[4] = target: recombinant stabilized spike protein derived from the beta strain (formerly described as the South A (SARS-CoV-2 (B.1.351)), P0DTC2); settings: remark: other sources report otherwise
[5] = target: T1, SARS CoV-2 spike trimer protein from …; settings: remark: other sources report otherwise; remark: listed apart in the source

| Binder | pseudovirus neutralization, ng/mL (quantity not given) [1] [ng/mL] | EC50 (read off the curve) [2] [nM] | EC50 [3] [nM] | EC50 (read off the curve) [4] [nM] | EC50 (read off the curve) [5] [nM] |
| --- | --- | --- | --- | --- | --- |
| R2D9 CDR3-knob (modifications not checked) peptide: ITHKTCPNGYNWFDRCCSWDGTCGDGCCSNRAWPSGNGRADSSIGETYGYEF | 66.8 |  |  |  |  |
| purified R2G3 CDR3-knob (after enterokinase cleavage from trxA) (modifications not checked) peptide: EGDKTCPDGYEHTCGCIGGCGCKRSACIGALCCQASLGGWLSDGETYTYEF | 302 |  |  |  |  |
| SKM ultralong CDR3 chimeric bovine-human IgG1 antibody (antibody) VH: QVQLRESGPSLVKPSQTLSLTCTASGFSLSDKAVGWVRQAPGKALEWLGSIDTGGNTGYNPGLKSRLSITKDNSKSQVSLSVSSVTTEDSATYYCTTVHQETLRSCPDGYIDNSGCTADWGCAALDCWRRRFGYHSTDPSHYTGATYIYTYSLHIDAWGQGLLVTVSS VL: QAVLNQPSSVSGSLGQRVSITCSGSSSNVGNGYVSWYQLIPGSAPRTLIYGDTSRASGVPDRFSGSRSGNTATLTISSLQAEDEADYFCASAEDSSSNAVFGSGTTLTVL |  | 0.2 | 0.19 |  |  |
| R4C1 ultralong CDR3 chimeric bovine-human IgG1 antibody (antibody) VH: QVQLRESGPSLVKPSQTLSLTCTASGFSLSDKAVGWVRQAPGKPLEWLGSIDTAENTGYNPGLKSRLSITKDNSKSQVSLSVSSVTTEDSATYYCATVHQKTRKEKNCPDGYIYSSNTASGYDCGVWICRRVGSAFCSRTGDYTSPSEFDIYEFYVEGWGQGLLVTVSS VL: QAVLNQPSSVSGSLGQRVSITCSGSSSNVGNGYVSWYQLIPGSAPRTLIYGDTSRASGVPDRFSGSRSGNTATLTISSLQAEDEADYFCASAEDSSSNAVFGSGTTLTVL |  | 0.3 | 0.2 | 0.3 | 0.03 |
| SKD ultralong CDR3 chimeric bovine-human IgG1 antibody (antibody) VH: QVQLRESGPSLVKPSQTLSLTCTASGFSLSDKAVGWVRQAPGKALEWLGSIDTGGNTGYNPGLKSRLSITKDNSKSQVSLSVSSVTTEDSATYYCTTVHQRTSEKRSCPGGSSRRYPSGASCDVSGGACACYVSNCRGVLCPTLNEIVAYTYEWHVDAWGQGLLVTVSS VL: QAVLNQPSSVSGSLGQRVSITCSGSSSNVGNGYVSWYQLIPGSAPRTLIYGDTSRASGVPDRFSGSRSGNTATLTISSLQAEDEADYFCASAEDSSSNAVFGSGTTLTVL |  |  | 0.16 |  |  |
